Patent US20220153832A1 (PIONYR IMMUNOTHERAPEUTICS, published 2022)

Experiments:
[1] = target: T1, Mouse MARCO, full length, on cells (mouse, UniProt Q60754 1-518); test: flow cytometry, 293T cells expressing mouse MARCO
T1 construct: whole, on cells; the cell type is named under assay; also called muMARCO; MuMARCO
T1 sequence (looked up): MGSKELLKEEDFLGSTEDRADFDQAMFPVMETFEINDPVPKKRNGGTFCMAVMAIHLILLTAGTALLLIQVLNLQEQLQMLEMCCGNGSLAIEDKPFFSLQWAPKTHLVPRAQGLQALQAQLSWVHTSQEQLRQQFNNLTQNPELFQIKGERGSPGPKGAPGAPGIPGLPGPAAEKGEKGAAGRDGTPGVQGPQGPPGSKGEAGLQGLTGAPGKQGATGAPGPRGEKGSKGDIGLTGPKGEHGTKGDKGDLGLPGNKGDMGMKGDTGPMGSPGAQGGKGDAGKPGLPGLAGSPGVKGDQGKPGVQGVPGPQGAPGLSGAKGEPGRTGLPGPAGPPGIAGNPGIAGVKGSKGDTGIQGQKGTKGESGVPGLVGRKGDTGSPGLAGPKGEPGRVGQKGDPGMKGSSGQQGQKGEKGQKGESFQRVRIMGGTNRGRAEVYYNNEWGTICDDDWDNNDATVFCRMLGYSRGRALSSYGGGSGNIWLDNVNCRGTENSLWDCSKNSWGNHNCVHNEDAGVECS

[2] = target: T2, Cynomolgus MARCO, full length, on cells (cynomolgus, UniProt A0A2K5X0Z2 1-519); test: flow cytometry, 293T (CyMARCO)
T2 construct: whole, on cells; also called cyno MARCO; CyMARCO
T2 sequence: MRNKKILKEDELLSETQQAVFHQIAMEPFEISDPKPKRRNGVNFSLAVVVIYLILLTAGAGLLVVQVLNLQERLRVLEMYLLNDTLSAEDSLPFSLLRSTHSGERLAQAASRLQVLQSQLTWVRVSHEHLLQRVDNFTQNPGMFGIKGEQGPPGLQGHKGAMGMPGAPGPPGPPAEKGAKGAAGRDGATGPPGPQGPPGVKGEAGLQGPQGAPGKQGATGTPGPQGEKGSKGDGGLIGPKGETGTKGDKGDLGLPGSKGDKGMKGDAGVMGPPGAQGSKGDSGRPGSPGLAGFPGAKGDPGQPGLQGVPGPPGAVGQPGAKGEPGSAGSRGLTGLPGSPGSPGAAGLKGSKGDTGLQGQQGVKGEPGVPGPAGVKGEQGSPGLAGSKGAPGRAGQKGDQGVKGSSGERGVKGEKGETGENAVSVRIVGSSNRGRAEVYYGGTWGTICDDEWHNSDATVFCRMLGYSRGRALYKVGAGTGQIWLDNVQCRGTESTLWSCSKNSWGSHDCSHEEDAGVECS
Procedure: Supernatants were removed and cell pellets were resuspended in Ca²⁺+ and Mg²⁺+ Dulbecco's phosphate-buffered saline (D-PBS) at 1×10⁶ cells/ml. 100,000 cells/well were plated onto U-bottom 96-well plates for staining and all centrifugation steps were performed at 1500 rpm at 4° C. for 5 min and samples were kept protected from light throughout the protocol. Cells were pelleted and resuspended in 100 μl of Zombie NIR viability dye (BioLegend) prepared by diluting Zombie NIR dimethyl sulfoxide (DMSO) stock 1000-fold in D-PBS. […] Flow cytometry data were analyzed using FlowJo software (version 10.6.1) and data were processed and further analyzed in Microsoft Excel and GraphPad Prism software (version 8). Half-maximal effective concentrations (EC₅₀) were calculated based on geometric mean fluorescence intensities (gMFI). In case when the plates were not able to be analyzed on the cytometer, cells were pelleted after the washes and fixed in 100 μl of 2% paraformaldehyde (PFA), prepared by diluting the 16% (w/v) stock (Thermo Fisher) in DPBS, for 15 min at RT. […]

[3] = target: T1, Mouse MARCO, full length, on cells; test: flow cytometry, 293T (MuMARCO)
mVar3 (RG3028) = target: T3, mVar3 (RG3028) (mouse, UniProt Q60754 150-518); test: binding to variant proteins, data not shown
T3 construct: Mouse MARCO with the human residues Q452, Y472 and K473 (already in the entry)
T3 chain: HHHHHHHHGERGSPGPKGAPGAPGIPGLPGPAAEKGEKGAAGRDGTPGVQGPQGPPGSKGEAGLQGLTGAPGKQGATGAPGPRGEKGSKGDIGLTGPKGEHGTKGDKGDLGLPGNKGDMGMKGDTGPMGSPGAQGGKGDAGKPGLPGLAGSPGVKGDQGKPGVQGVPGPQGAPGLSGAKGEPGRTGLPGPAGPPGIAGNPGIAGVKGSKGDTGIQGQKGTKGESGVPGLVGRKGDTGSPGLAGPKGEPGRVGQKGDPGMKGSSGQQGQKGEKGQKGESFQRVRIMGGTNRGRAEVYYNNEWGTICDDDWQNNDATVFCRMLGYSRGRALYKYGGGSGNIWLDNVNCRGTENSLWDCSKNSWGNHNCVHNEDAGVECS
Outline: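 Binding to MARCO variant proteins was measured by biolayer interferometry at 37° C in ProbeLife kinetics buffer. Antibodies (200 nM) were captured on anti-mouse or anti-human Fc probes for 120 s between 60 s baselines. This was followed by association with 200 nM variant antigen and 5-10 minutes dissociation.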

B1: PI-HX-3031 (antibody)
heavy: QVQLKESGPGLVQPSQTLSLTCTVSGFSLTSYHVSWVRQPPGKGLEWMGAIWTGGSIAYNSLLKSRLSISRDTSKSQVFLKMNSLQTEDTATYYCARDLSDYYSSYTSFDYWGQGVMVTVSTAETTAPSVYPLAPGTALKSNSMVTLGCLVKGYFPEPVTVTWNSGALSSGVHTFPAVLQSGLYTLTSSVTVPSSTWSSQAVTCNVAHPASSTKVDKKIVPRECNPCGCTGSEVSSVFIFPPKTKDVLTITLTPKVTCVVVDISQNDPEVRFSWFIDDVEVHTAQTHAPEKQSNSTLRSVSELPIVHRDWLNGKTFKCKVNSGAFPAPIEKSISKPEGTPRGPQVYTMAPPKEEMTQSQVSITCMVKGFYPPDIYTEWKMNGQPQENYKNTPPTMDTDGSYFLYSKLNVKKETWQQGNTFTCSVLHEGLHNHHTEKSLSHSP
light: DIQMTQSPASLSTSLGETVSIECLASEGISNDLAWYQQKSGKSPQLLIYAASRLQDGVPSRFSGSGSGTRYSLKISGMQPEDEADYFCQQSYKYPLTFGSGTKLEIKRADAAPTVSIFPPSTEQLATGGASVVCLMNNFYPRDISVKWKIDGTERRDGVLDSVTDQDSKDSTYSMSSTLSLTKADYESHNLYTCEVVHKTSSSPVVKSFNRNEC
notes: Parental rat hybridoma, rat IgG2a
[1]
  binding result: no binding
[2]
  EC50: 0.51 nM

B2: PI-HX-3061 (antibody, rat IgG2a)
heavy: EVQLVESGGGLVQPGSSLKLSCVASKFTFSNYGMNWIRQAPKKGLEWIALIYYNSNNKYYADSVKGRFTISRDNSKNTLYLEMNSLRSEDTAMYYCAKSLTGGSDYFDSWGQGVMVTVSSAETTAPSVYPLAPGTALKSNSMVTLGCLVKGYFPEPVTVTWNSGALSSGVHTFPAVLQSGLYTLTSSVTVPSSTWPSQTVTCNVAHPASSTKVDKKIVPRNCGGDCKPCICTGSEVSSVFIFPPKPKDVLTITLTPKVTCVVVDISQDDPEVHFSWFVDDVEVHTAQTRPPEEQFNSTFRSVSELPILHQDWLNGRTFRCKVTSAAFPSPIEKTISKPEGRTQVPHVYTMSPTKEEMTQNEVSITCMVKGFYPPDIYVEWQMNGQPQENYKNTPPTMDTDGSYFLYSKLNVKKEKWQQGNTFTCSVLHEGLHNHHTEKSLSHSP
light: DVQMTQSPSYLAASPGESVSISCKASKSIGTFLAWYQEKPEKTNKLLIYSGSTLQSGTPSRFSGSGSGTDFTLTIRNLEPEDFAVYYCQQHDEYPFTFGSGTKLEIKRADAAPTVSIFPPSTEQLATGGASVVCLMNNFYPRDISVKWKIDGTERRDGVLDSVTDQDSKDSTYSMSSTLSLTKADYESHNLYTCEVVHKTSSSPVVKSFNRNEC
notes: Parental rat hybridoma, rat IgG2a; cross reactive with human and mouse MARCO
[3]
  EC50: 1.52 nM

B3: PI-3010-AB (antibody, human IgG1, kappa)
heavy: not shown
light: DIQMTQSPASLSTSLGETVSIECLASEGISNDLAWYQQKSGKSPQLLIYAASRLQDGVPSRFSGSGSGTRYSLKISGMQPEDEADYFCQQSYKYPLTFGSGTKLEIKRTVAAPSVFIFPPSDEQLKSGTASVVCLLNNFYPREAKVQWKVDNALQSGNSQESVTEQDSKDSTYSLSSTLTLSKADYEKHKVYACEVTHQGLSSPVTKSFNRGEC
mVar3 (RG3028)
  binding result: binds
